Source: the domain aggregation screens of Martell et al. (2025)

Assay: soluble fraction after stress (log2 fold change); higher = more stays soluble; pooled small domains, quantitative proteomics
Settings: stress: pH 4
How it was run: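 Pooled custom libraries of small protein domains were stressed at pH 4 and then measured by high-throughput quantitative proteomics. The fold change in the amount of each domain that stays soluble after the acid stress serves as a measure of aggregation propensity. Fold changes are given on a log2 scale, and higher values mean more of the domain stayed soluble.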

HMKTLELIAAIRKRIAGGYAGADGRLPNIGEIAKDFSVSPMTAQKAVRALVEAGVLTSTRRKGVFLKQPAS
soluble fraction (log2): 0.354

HMSEQLKQIAERIKELRNIAGLGEEELAAKLDIPVDTYREYESGNVDIPVSFLYKISGMFNVELTAIL
soluble fraction (log2): -1.05

HMVTVQEGETLSAIAARSGVSVKDLVRANEIRNPDSIQEGQVLFVP
soluble fraction (log2): 0.165

HMQISDDSELIKIVDNILANSQKQIDDYHNGKTNLFGFFVGQVMKETKGKANPVKVNEILKDKL
soluble fraction (log2): 0.102

HMRKIEDVLRLHAQGMSTRRIALATGVGKTTVIEYLRRAAVAGLSWPLPEGLDEEALERRVFPPPP
soluble fraction (log2): 0.282

HMQTTQQLIRNLRLKQAATLLADKRHSITEVATLTGFTHPTYFATAFREMFGVSPSEYMEQHI
soluble fraction (log2): 0.126

HMSNRDNPVVLDFKKVKSTEQLDNILEEYIRENFEGYTVKGRMFSSDEGKFIIALALKDDDGKRALVYFDV
soluble fraction (log2): -1.06

HMFLTSDEGKIMQLLEDKQRITRKDAQELLGVSQSTAGRILKTLVDNGQITQRGGGRTTRYELIK
soluble fraction (log2): 0.22

HMAEANTEADFVAIGVRAELLPILQKLGVHTIEQLKGIKATKLFNDIPGMRKKLKLDAVQNPTLQEIEGWL
soluble fraction (log2): -0.393

HMTRTEYMAQLEKYLKKLPHKEFQEAITFFNEYFDEAGPEKETAIMEELGSPKEAASELITNILNRHI
soluble fraction (log2): -0.101

HMNLDYKQFQVFNNIETLNTFTNLLSDNKIDFEVENNSKIFDPSFANNDFEKEYIVKIHPNDFEKVY
soluble fraction (log2): -1.32

HMALLKRQDEILMYLYTQNKWITGNELAQLFHVSLRTIRNDISFINTEKSNSVLSNRNKGYHIAKDFVYNE
soluble fraction (log2): -0.0758

HMSGLLTTSKLAQKHKMKTEPMLEKLTAAGYLEWRDDKHSLTEQGKKAGGQFKTGRFGAYFLWPEDLV
soluble fraction (log2): 0.116

HMDIKKHISATLKREMEKRGLNFMEFSTELGIPRTTLQGYLKGTSSPQADSLEELADKLGISPAELVSG
soluble fraction (log2): -0.434

HMEIEEIDYGTFLQMVEDGVVEKIELTDTQIFLTSTVDNDDKVYTTGVMPDQDLTNRLIEAGVVNFGKVV
soluble fraction (log2): -0.956

HMAEVDDESIKLYDGGYQSNTTKSRLNALLSEFGYDTEHVFQKQFEWFISIFDLTEKAMRTVPFSNGMRL
soluble fraction (log2): -0.257

HMADNILPAQTDAIKALATENGFSNESLEKYLIENYGTTIYGLSRNQGIQIINLFQSENPPKP
soluble fraction (log2): -0.207

HMAMKFQDIVRQKRKELGLTQEQAARRLGVSPAAVSKWESGQSLPDTPLFAPLARLLHTDLNTLLSFE
soluble fraction (log2): -0.34

HMAVSPEEQKKRIIELFRNRNEVSFKEIFDLPTKGHFVITLLAVLDLARQQIVIMEQLENEGIIKFTKGA
soluble fraction (log2): -0.232

HMSDGDFLQKIAEEILAQFPDKVKEYQKGKKGLIGFFMGELMKRSKGKADPKVATRILEEILSEKNGSS
soluble fraction (log2): -0.609

HMLERPLFTPEQYGRFRGKEARIRLSNPVEGRKTLTGSIVEATEERIVVFVEEEEREVTVPFQWIKSGNL
soluble fraction (log2): -0.523

HMGARWPIQDRPLTATEAAAVRRMYAGGLPHGRSKNSVITEVWGDLSNKPKRLDWLNQALEGGA
soluble fraction (log2): 0.357

HMSSFRDISGTVYVKASAANLRSEPNTSSLIVDTLYYGASLQRISTNDIWTKVKTGNGQIGFMDNSLFQT
soluble fraction (log2): ≥ 0.43

HMNFDVETGLPLDSRLVVSGLIQRDGINSLKRYEGMIVYVESEAKNYQLVGGISNTDWAELS
soluble fraction (log2): -0.426

HMHNSPSPVATTILRFLQPVRAFVGDTEDMRTFGPFLREDVAMVPASQAKNLIRSGHAVEINP
soluble fraction (log2): -0.173

HMRVELVVVPELRQQLLPEARELANSAGLQLRVRGQSPADETRTIVVTQSPAAGTRVAARSIVLVE
soluble fraction (log2): 0.338

HMSGYAIVNNQPGRTLNLRNSPSQSNNIIGQIPSGTRLQLISRGETWSEVIFQTTRGFVMSSFLRFET
soluble fraction (log2): -0.17

HMSQEAKLAMPVTDLRLSARTLNALELANIRTVRDLVSHTEEQLLELRNFGETALAEVKEKLAALGLRLGM
soluble fraction (log2): -0.436

HMTKNEFLQGLKEELEGRVTHSAIQENIRYYDDYISQEVLKGSTEEEVTESLGGPRIIARTIVDAAYD
soluble fraction (log2): -2.29

HMKEKLGEFENVFLSVDELQKLKSKLGAETESYIERLSNYIASSGKKYKSHYATILSWTQKDTK
soluble fraction (log2): -0.644

HMGDSVLNDKLNTLAGLDEERFKWVLASLNPNNSYSTHSDKMSALMWLVSYFNDEADLKETVPPLPI
soluble fraction (log2): -0.325

HMFQNPSQVVTTRVGELRAAIPTAQQGRITMGVAVVEDANSVRSVLISTSEPRGYLRPGVTLGPGETMV
soluble fraction (log2): 0.106

HMENNIPANIKALIISYVNQNYPGAVIHSIERNSNGTYDVEIYYNNREYDLLFDAQGNFISGNVDDQ
soluble fraction (log2): -0.366

HMKRNLESVLDHIEGIGPKRRKALYKHFGNLDAMRVAELEELESVEGMNKKAALAVYEFFRRNS
soluble fraction (log2): 0.411

HMPKAMAIMSEIAGTVHIDDTKKSRHVEVTGVDDNGAPVTKSYLIPFGHRLKVMEGDVLVKGALLT
soluble fraction (log2): -0.0288

HMKVQEMTANSFLTQWEAGNVKTLDILPEGIIKGELNDGTKFQLYYSSAAGLIDDVKKNPEKFANTTVSEK
soluble fraction (log2): -0.238

HMTNTWNNIVERNDLFFKKFTNTPFNGKIETYWPNGNLKETGIITDGKKDNLWEYYYENGNPKEVEF
soluble fraction (log2): -0.0781

HMEGVNLTVQEAKQMAAIIAPLLKQGQSPYQIVTNHPELGISEKTLYNYIENDVFHEIAGITVMDL
soluble fraction (log2): -0.881

HMFNPEQDPKQLTGRERAVADLIGLGANNAEIAIRLSMSERTVKAHLTSIFQQLNVRDRVQLALVMNQL
soluble fraction (log2): -0.541

HMPHFGVVLQMDDWKTLRDRLEARDDIDWVMKPNLRFEGQPGEQATLFIRDPSGNALEFKGFADLSQVF
soluble fraction (log2): -1.64

HMGEAAIYRINILINNLNVRSGPGTLYPRLRRADFPGEYDIFEEKNGFGRISNTKSEWVSLNTQYVQRLT
soluble fraction (log2): 0.158

HMPILRDEVYLSIKEAILTGELAPGERISIGRLLPQIGFSPTPIREALLKLEQEGFVSRLQRGGFIVSR
soluble fraction (log2): -0.471

HMSSHNIALDQDVVVTQLKGKVYLVAADGSQKQLAEGDILPKDAVLITPEGASFKGGNQTFTLS
soluble fraction (log2): -0.235

HMKMQPVISQGVLYINNVTDVRTIEVFDISGRIVADAAASTTVNIAHLNEGPYIVKVTTVNGIESIKILNK
soluble fraction (log2): -0.889

HMSLSDDIAQTLRQLGFDRDVSETLANDVLPAMPTRQDVIDLLGTLGIEKHVAADFANFVVLN
soluble fraction (log2): -1.08

HMKPTVKVPNVVNLSLRNAQIQLQNYGLEVGSISYESSRFKNAVLRQSISEGSVVEKGTTINLVISDGL
soluble fraction (log2): 0.178

HMVSDISTQYQKIINEALDKQPEVKLADIVTMIKEQTSNKVQNGIVENVAKQMNGIEIIKIGQAKGVRRTT
soluble fraction (log2): 0.152

HMSSTSTMTVAEATIGRKVKHDKFGEGTIITVADVNGDKKLTIAFNQQGVKMLMLSMAKLEL
soluble fraction (log2): -1.05

HMFTRFTVAQDGWTIGGFTAKEMAVSTAKQHAVDTGKPVTVVAHVAGGGSREAIFNSDGTNDKIWN
soluble fraction (log2): 0.157

HMNKFKVNERVRVIATGEIGIVKGREILPVEGSKRVNIEYLVKVGNGFSNWKAFSKKELEPVR
soluble fraction (log2): ≥ 0.43

HMNREMLVHAIGQLKEKYASALELKYWHGFTEREIAAFLNISEKAANSRLVRGRVMLRKLLE
soluble fraction (log2): 0.139

HMGEVEVPDLVGIEAIQAKTLLFNSDFLIKEFYDYDPTQPIGVVIRQAPEAGTTQTIGDSVTITINRA
soluble fraction (log2): -0.0721

HMQILPAFLPENPELRARLANHSLEELTEILKQYKTLHNSTDVDTVKRAIRAIEIEEYYAVHPV
soluble fraction (log2): -0.635

HMKSLLSRREQEVLELVSRGFSYSEIAELKNLSVHTIQTHIKSLYGKLEVHSKMEAVLEATRMGLLPQ
soluble fraction (log2): -1.12

HMKFIPPSLEEARAYFVEKGSSEPEAEKFVNHFDSIGWKVGRARTPMKKWKSAANNWIANNREWNQ
soluble fraction (log2): -0.166

HMVINQRKLNLLSIYSSGSEKRAIILFPTGQTKFVKVGDTLDGGRVAAIGTSEIRYLKGGNNLVLRIPG
soluble fraction (log2): 0.173

HMGKELTVPDVVGQNYVSAQEKLIAGGFQVEVADSVYDSRYGRGVVVDQNPHKDTRVKPGRLIYVTVNA
soluble fraction (log2): 0.0611

HMRNSSLQTDLELRAYVIDGLNHFWTPEEIAGRWSLAHPDRPVSFATIYRHIKRKLLPGIEPKTHLRRRGK
soluble fraction (log2): ≥ 0.43

HMAAVSTDEEFAALGIPAEWIPVLKSNGFQTVESLKKVAPGALFNQLGGLRKKNKLEIAMPSLDQVKAWLA
soluble fraction (log2): -0.278

HMLVYQRLDKDNFIFEGKTLLNDIYKILDIESNYFEAIRGEADSIAGLLLEIAKSIPTINTEF
soluble fraction (log2): -0.571

HMRITEQRRTLAKLFADTPGYLSPKDVYDYMGRFYPGLSFDTVYRNLRLLDELGVLEQVVFEDGVKFK
soluble fraction (log2): -0.677

HMQQNYREMHKVKKGETLFGIARRYEITVDQLIKANPDMNAVGYELKKGDYIFIPYPDGQKP
soluble fraction (log2): -0.116

HMGSQQIEEGMRRLVASGALRPGASVPSVRDLARDLQVNPATVVRAYQRLVDAGLLVVRRGEGTFVAE
soluble fraction (log2): -0.103

HMIKITLPDGSVKEYKKGITPAEVAQSISEGLARNVISASYNGKTIETVTPLTTDGSLVLYTWDSPEGK
soluble fraction (log2): -0.168

HMSTVTEVHYIAFKNGRIVDIKAALTGSAVTATSIKEQPKIENYNYTTSEVRDGILYHTYAPVA
soluble fraction (log2): 0.195

HMNKEDIASNEKLLGLLNHMSKVLKDIDFIKDDRPMIVRKINHIFKKATLSEEEINILRGVLSAIENHS
soluble fraction (log2): -0.104

HMWMEKEELLWNDIIRGGVERGELREDTDIQEAAALFRQVFIGLAYQMSFSDGLDVGILRKRFHHIYGLLT
soluble fraction (log2): -2.16

HMSVGDLLENLIRETRAQFSAPPESLGVAEKRRFVALLSQKGGFLLKGAVSRAASVLGVSEQTVYRYLKDS
soluble fraction (log2): 0.0671

HMPYNRRYLISNADGALYTVEENGLVKLEETNLTAELFETRGMQDIPDGKLLITLHDPTILYWHDSENLFP
soluble fraction (log2): -2.32

HMGREVVVPNLAGIEKEVALDLLKKNRLGGMITGTRFSSDFPAGQVIQQMPEAGSRVKVGKQVKLVLSEG
soluble fraction (log2): 0.334

HMSQIAENNQKYVGTIQKVLVEGTSKNNDDMLTGRTDSNKVVIFEGDKKLIGNMVELKIVSEHMWYLKGEL
soluble fraction (log2): -0.0811

HMNDIVKIYTTHRIINIEGLAKNEPIMLYTINGTLIDKSVSSNGSAQLHVKGIGVYLVKWANNIVKVIVPN
soluble fraction (log2): 0.199

HMAAQDIILKRNAEQIEAIVKEITDTDVKYRKFTNTEGVTYSIRRSEVFSITYENGTMDLFA
soluble fraction (log2): 0.206

HMYPEETVNKILDVSMQLFLEKGYEHTSIQDIVNHLGGLSKGAIYHHFKSKEDILDGVMNKLYQNN
soluble fraction (log2): -0.941

HMQAKDVEIPNFVGKTLAEANADNKDNFNFVVESKYDASKELGVILEQEPAADSKLVKSGSQITLKV
soluble fraction (log2): 0.0557

HMTESIKRDEAIRLNNGRIYTLDAAKIGTNEYEVMLFNPRTGEEIDSAKTSTEADAILQFDRLRRMYHR
soluble fraction (log2): -0.151
